Here are results for 17 molecules from patent publication US20080299108A1, “Peptides for Diagnostic and Therapeutic Methods for Celiac Sprue” (priority 2005, published 2008).

Entries after “also recorded” stand apart in the source; their conditions may differ. Where no end group is shown, it is not given here.

One data set addresses T1, HLA-DQ2 (Homo sapiens, UniProt P01909+P01920, A45G/A70V/D89A/E106A/E77G/E98D/H199R/L107V/N214S/P84L/P87L/T103K/T109R/T172A/T60S/V78E/V99I/Y58L/Y62S/Y69I/Y79F).
T1 construct: the soluble extracellular domains of the DQ2 α and β chains were co-expressed; Fos leucine zipper, joined through a factor Xa site (C); gliadin peptide […]; Jun leucine zipper, joined through a factor Xa site (C); made in house; host or cells: High Five insect cells, pAcAB3 baculovirus
Nature of the data set: Peptide exchange assay (HPSEC, fluorescein-conjugated peptides). To be noted: for DQ2 binding affinity: pH 5 and pH 7; for maximum occupancy (DQ2 bound peptide): pH 7.3, 45 h; for binding maximum (DQ2 bound peptide as percentage of total peptide): pH 5.5, 37° C., 45 h, 4.7 μM DQ2, 0.18 μM peptide. In kind it is binding. On the procedure: FIG. 8. Equilibrium occupancy of individual peptides listed in Table 1 in the DQ2 binding pocket, as measured by peptide exchange assays. Measurements were made at (A) pH 5.5 and (B) pH 7.3. 4.7 μM DQ2 was mixed with 0.18 μM fluorescein-conjugated peptide at 37° C. for 45 h, and the abundance of DQ2 bound peptide was calculated as a percentage of total peptide.
DQ2 expression and purification. Soluble DQ2 molecules were expressed and purified as previously described. Briefly, the soluble extracellular domains of the DQ2 α and β chains were co-expressed in High Five insect cells using a pAcAB3 baculovirus expression system, and were affinity-purified using the anti-DQ2 mAb 2.12.E11. […] A complementary Fos/Jun leucine zipper pair was engineered at the C-terminal ends of α and β chains, respectively, with intervening factor Xa proteolysis sites, to increase the heterodimer stability during protein expression.
The concentration of HLA-DQ2 was determined by UV spectrophotometry at 280 nm using the absorption coefficient factor 75,700 cm^−1M^−1 as calculated from the contents of tyrosine, tryptophan and cystine in the DQ2 sequence (22). Prior to use in binding experiments with exogenous ligands, the DQ2-ligand fusion protein was first treated with ˜2% w/w thrombin in pH 7.3 PBS at 0° C. for 2 h.
Peptide exchange assay. For peptide exchange experiments, the DQ2 heterodimer purified as described above was incubated with fluorescein-conjugated ligands in a 25:1 ratio (i.e. 4.7 μM DQ2 with 0.18 μM fluorescent peptide). Incubations were performed at 37° C. in a 1:1 mixture of PBS buffer (10 mM Pi, 150 mM NaCl, pH 7.3, supplemented with 0.02% NaN3) and McIlvaine's citrate-phosphate buffers (pH 5 or pH 7) such that the final pH was either 5.5 or 7.3, respectively. Peptide binding was measured by high performance size exclusion chromatography (HPSEC) (17). 1 μl of reaction mixture was diluted into 14 μl PBS. 12.5 μl of the diluted material was injected onto a BioSep 3000 size exclusion column (Phenomenex), and eluted with PBS buffer at 1 ml/min. The DQ2-peptide complex eluted at 8.5 min, with free peptides emerging […] later. The fluorescence signal was recorded using an in-line Shimadzu RA35 fluorescent detector with excitation wavelength set at 495 nm and emission detection set at 520 nm. Peak areas corresponding to the DQ2-peptide complex and the free peptide were used to calculate the fractional yield of the DQ2-fluoresceinated peptide complex.

The subject of data set [1] is clonal T cell line that recognizes the αII epitope. Nature of the data set: T cell proliferation, clonal T cell line (FIG. 9B). In kind it is cell-based, human. To be noted: paraformaldehyde-fixed DQ2 antigen presenting cells. The method, then:
(§1) FIG. 9A-9B. […] Paraformaldehyde-fixed DQ2 cells were used as antigen presenting cells. (A) Proliferation of a polyclonal T cell line that recognizes all α epitopes. (B) Proliferation of a clonal T cell line that recognizes the αII epitope (peptide 3).
(§2) T cell proliferation assays. The DQ2 homozygous […] cell line (LCL) VAVY cells were irradiated with 12,000 rads of γ-irradiation or fixed with 1% paraformaldehyde for 10 minutes as indicated, and incubated with the appropriate peptides overnight in media containing 10% fetal bovine serum, 2% human serum, penicillin and streptomycin at a cell density of 2×10^6 cells/ml in 96-well plates. The next day, the volume was doubled to yield a cell density of 1×10^6 cells/ml, 50 μl of which was placed into a U-bottom 96-well plate. An equal volume of T-cells (50 μl of 1×10^6 cells/ml) was added to each well, and cells were incubated at 37° C. and 5% CO2 for 48 h, at which point 0.5 μCi/well of [methyl-^3H] thymidine (Amersham, TRK120) was added. […] After thawing, incorporated thymidine was collected on a filter mat (Wallac, 1205-401) using a Tomtec cell harvester, and counted using a Wallac 1205 Betaplate liquid scintillation counter.
(§3) To test this hypothesis, we synthesized the 20-mer peptide 5, and quantitatively compared its ability to bind DQ2 in peptide exchange and dissociation assays. […]

For data set [2], the system named is polyclonal T cell line that recognizes all α epitopes. Nature of the data set: T cell proliferation, polyclonal T cell line (FIG. 9A). In kind it is cell-based, human. The note with it: paraformaldehyde-fixed DQ2 antigen presenting cells. On the procedure: as §1, §2, §3
Data set [3] has as its system rat brush border membrane (BBM) protein. Description: Rat brush border membrane (BBM) digestion of gliadin peptides, LC-MS. The class given is in vitro ADME. The note with it: 27 ng/μl rat BBM protein. On the procedure:
To dissect this complex process, liquid chromatography coupled mass spectroscopy analysis (LC-MS-MS) was utilized to investigate the pathways and associated kinetics of hydrolysis of immunodominant gliadin peptides treated with rat BBM preparations. Because the rodent is an excellent small animal model for human intestinal structure and function, rat BBM was chosen as a suitable model system for these studies.
BBM fractions were prepared from rat small intestinal mucosa as described by Ahnen et al. (1982) J. Biol. Chem. 257, 12129-35. […] No proline aminopeptidase (EC 3.4.11.5) or prolyl endopeptidase activity (PEP, EC 3.4.21.26) activity was detectable (<5 μU/μg). Alkaline phosphatase and sucrase were used as control BBM enzymes with activities of 66 μU/μg and 350 μU/μg, respectively.
BBM fractions were partially purified from the small intestinal mucosa of adult female rats maintained on an ad libitum diet of wheat-based standard rodent chow. Total protein content was determined by a modified method of Lowry with BSA as a standard. Alkaline phosphatase activity was determined with nitrophenyl phosphate. Sucrase activity was measured using a coupled glucose assay.
Proteolysis with the BBM preparation was investigated using the peptide (SEQ ID NO:1) (SEQ ID NO:1) […], a product of chymotryptic digestion of α-9 gliadin (Arentz-Hansen et al. (2000) J. Exp. Med. 191, 603-12). […] It was subjected to BBM digestion, followed by LC-MS-MS analysis. A standard 50 μl digestion mixture contained 100 μM of synthetic peptide, 10 μM tryptophan and Cbz-tryptophan as internal standards, and resuspended BBM preparations with a final protein content of 27 ng/μl and exogenous proteins, as indicated, in phosphate buffered saline. After incubation at 37° C. for the indicated time, the enzymes were inactivated by heating to 95° C. for 3 minutes. The reaction mixtures were analyzed by LC-MS (SpectraSystem, ThermoFinnigan) using a C18 reversed phase column (Vydac 218TP5215, 2.1×150 mm) with water:acetonitrile:formic acid (0.1%):trifluoroacetic acid (0.025%) as the mobile phase (flow: 0.2 ml/min) and a gradient of 10% acetonitrile for 3 minutes, 10-20% for 3 minutes, 20-25% for 21 minutes followed by a 95% wash. Peptide fragments in the mass range of m/z=300-2000 were detected by electrospray ionization mass spectroscopy using a LCQ ion trap, and their identities were confirmed by MSMS fragmentation patterns.

The subject of data set [4] is rat small intestinal brush-border membrane (BBM) enzymes. Nature of the data set: Rat BBM digestion of peptides from α2-gliadin (12 ng/μl BBM protein). The class given is in vitro ADME. The method, then: BBM fractions were prepared from rat small intestinal mucosa.
For data set [5], the target named is 33-mer α2-gliadin peptide (non-deamidated), residues 57-89.
Data set [6] has as its target soluble HLA-DQ2 heterodimer (extracellular domains of the DQ2 α and β chains with Fos/Jun leucine zippers), thrombin-treated (human). Nature of the data set: peptide exchange kinetics, HPSEC.
For data set [7] the target is unchanged. Description: peptide exchange kinetics, HPSEC, pH 7.3.
In data set [8] the test system is pepsin, trypsin, chymotrypsin, elastase and carboxypeptidase.

For PQPELPYPQPELPY [Peptide 6], in the data set with HLA-DQ2, the “DQ2 binding affinity” value is “considerably lower affinity for DQ2 than peptide 5”.
Take “LQLQPFPQPELPYPQPELPYPQPELPYPQPQPF [Peptide 1]”: in data set [1], the “T cell stimulatory capacity” value was “comparable T cell stimulatory capacity that exceeds that of peptide 3”. In addition, in the data set with HLA-DQ2 (exchange kinetics), the “time to half maximal DQ2 occupancy” value was about 8 h. Also, the “maximum occupancy (DQ2 bound peptide)” value with HLA-DQ2 stood at 28%. In addition, the “T cell stimulatory characteristics” value in data set [2] is reported as “substantially more potent T cell antigens than the minimal αII epitope peptide 3”.
Take RRLIEDNEYTARG: the “clearance of digestive intermediates” value in [3] is “cleared completely within one hour”. The “apparent half time of disappearance of the parent peptide (t1/2)” value in data set [3] (100 μM peptide, 37° C.) amounted to 10 min.
Take “LQLQPFPQPEKPYPQPELPY [Peptide 17, L11K analogue of 20-mer peptide 5]”: the “DQ2 binding affinity” value with HLA-DQ2 was “bound poorly to DQ2”.
Regarding LQLQPFPQPELPYPQPELPY [Peptide 5], the “T cell stimulatory capacity” value in [1] was “comparable T cell stimulatory capacity that exceeds that of peptide 3”. The “DQ2 binding affinity” value in the data set with HLA-DQ2 is given as “comparable to the 33-mer peptide 1 in all in vitro assays; also recorded: binds to DQ2 equally well as the 33-mer peptide 1”. For the same molecule, the “T cell stimulatory characteristics” value in data set [2] was “substantially more potent T cell antigens than the minimal αII epitope peptide 3”.
For “LQLQPFPQPELPYPQPEKPY [Peptide 18, L18K analogue of 20-mer peptide 5]”, the “DQ2 binding affinity” value with HLA-DQ2 is listed as “bound poorly to DQ2”.
Turning to “LQLQPFPQPELPYPQPQLPYPQPQLPYPQPQPF [Peptide 11]”, the “DQ2 binding affinity” value in the data set with HLA-DQ2 is listed as “higher affinity for DQ2 than either Q17E (12) or Q24E (13)”.
As to PQPELPYPQ [Peptide 3], the “binding maximum (DQ2 bound peptide as percentage of total peptide)” value with HLA-DQ2 is listed as 7%.
Turning to “LQLQPFPQPELPYPQPQLPYPQPELPYPQPQPF [Peptide 15]”, the “DQ2 binding affinity” value with HLA-DQ2 is recorded as “significantly enhances affinity relative to Q10E (11)”.
With PFPQPELPY [Peptide 2], in the data set with HLA-DQ2, the “binding maximum (DQ2 bound peptide as percentage of total peptide)” value is given as “less than 1%” and the “maximum occupancy (DQ2 bound peptide)” value was “undetectable”.
Regarding PQPQLPYPQPQLP, in data set [3], the “stability toward BBM digestion” value is on record as “highly resistant to further digestion”.
For “LQLQPFPQPELPYPQPELPYPQPQLPYPQPQPF [Peptide 14]”, the “DQ2 binding affinity” value with HLA-DQ2 is given as “significantly enhances affinity relative to Q10E (11)”.
Turning to WQIPEQSR, the half-life of disappearance in data set [4] is on record as about 60 min.
“LQLQPFPQPQLPYPQPELPYPQPELPYPQPQPF [Peptide 16]”: the “DQ2 binding affinity” value in the data set with HLA-DQ2 is “approximates the 33-mer binding characteristics”.

B1: human tissue transglutaminase (tTGase) (protein)
chain: AEELVLERCDLELETNGRDHHTADLCREKLVVRRGQPFWLTLHFEGRNYEASVDSLTFSVVTGPAPSQEAGTKARFPLRDAVEEGDWTATVVDQQDCTLSLQLTTPANAPIGLYRLSLEASTGYQGSSFVLGHFILLFNAWCPADAVYLDSEEERQEYVLTQQGFIYQGSAKFIKNIPWNFGQFEDGILDICLILLDVNPKFLKNAGRDCSRRSSPVYVGRVVSGMVNCNDDQGVLLGRWDNNYGDGVSPMSWIGSVDILRRWKNHGCQRVKYGQCWVFAAVACTVLRCLGIPTRVVTNYNSAHDQNSNLLIEYFRNEFGEIQGDKSEMIWNFHCWVESWMTRPDLQPGYEGWQALDPTPQEKSEGTYCCGPVPVRAIKEGDLSTKYDAPFVFAEVNADVVDWIQQDDGSVHKSINRSLIVGLKISTKSVGRDEREDITHTYKYPEGSSEEREAFTRANHLNKLAEKEETGMAMRIRVGQSMNMGSDFDVFAHITNNTAEEYVCRLLLCARTVSYNGILGPECGTKYLLNLNLEPFSEKSVPLCILYEKYRDCLTESNLIKVRALLVEPVINSYLLAERDLYLENPEIKIRILGEPKQKRKLVAEVSLQNPLPVALEGCTFTVEGAGLTEEQKTVEIPDPVEAGEEVKVRMDLLPLHMGLHKLVVNFESDKLKAVKGFRNVIIGPA
Regarding B1, the “kcat/KM (deamidation by tTGase)” value in [5] was “kcat/KM=440 min-1 mM-1”.
In data set [6], {5(6)‑carboxyfluorescein}-LQLQPFPQPELPYPQPELPYPQPELPYPQPQPF [33-mer peptide 1 (deamidated 33-mer from α2-gliadin), fluorescein-conjugated] displayed a time to half maximal DQ2 occupancy of 8 h. This molecule came in with a maximum occupancy in data set [7] of 28%.

B2: myoglobin: another common dietary protein (protein, UniProt P02144 2-154, looked up)
Myoglobin: GLSDGEWQLVLNVWGKVEADIPGHGQEVLIRLFKGHPETLEKFDKFKHLKSEDEMKASEDLKKHGATVLTALGGILKKKGHHEAEIKPLAQSHATKHKIPVKYLEFISECIIQVLQSKHPGDFGADAQGAMNKALELFRKDMASNYKELGFQG
Turning to B2, in data set [8], the “stability toward gastric and pancreatic proteases” value was “rapidly broken down into much smaller products”.
